Test results published in doi:10.1101/2021.12.10.472004 (bioRxiv, 2021).
Each block holds one molecule with its values, some of them ahead of it.

Columns and labels:
[1] = biological target: 20S proteasome (human (endogenous in red blood cells)) (UniProt P25786); experiment: negative stain electron microscopy
[2] = biological target: the molecule itself; experiment: negative stain electron microscopy

20S proteasome (human (endogenous in red blood cells)), sequence (P25786 whole entry, looked up): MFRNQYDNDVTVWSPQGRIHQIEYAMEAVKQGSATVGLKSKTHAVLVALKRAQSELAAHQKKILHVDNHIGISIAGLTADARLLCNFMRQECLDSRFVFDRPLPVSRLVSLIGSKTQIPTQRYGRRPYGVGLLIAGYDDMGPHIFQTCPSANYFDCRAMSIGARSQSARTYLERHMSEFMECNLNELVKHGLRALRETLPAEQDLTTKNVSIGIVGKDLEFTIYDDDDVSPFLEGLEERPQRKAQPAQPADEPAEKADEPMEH

- percent of the observed proteasomes that were singly-capped 26S [1]: 6%
Molecule: 19S regulatory cap of the proteasome (complex)

B1: peroxiredoxin PRDX2 (enzyme, human (endogenous in red blood cells), UniProt P32119 1-198, looked up)
chain: MASGNARIGKPAPDFKATAVVDGAFKEVKLSDYKGKYVVLFFYPLDFTFVCPTEIIAFSNRAEDFRKLGCEVLGVSVDSQFTHLAWINTPRKEGGLGPLNIPLLADVTRRLSEDYGVLKTDEGIAYRGLFIIDGKGVLRQITVNDLPVGRSVDEALRLVQAFQYTDEHGEVCPAGWKPGSDTIKPNVDDSKEYFSKHN
- stoichiometry N [2]: 10
